In patent US20210353740A1:
Where “and” joins values, the source holds several entries; their conditions need not be identical. Equal values may be shown once.

Tests used:
[1] = biological target: FP-rTT monomer (HIV-1 Env fusion peptides conjugated to monomeric rTT) (HIV-1); experiment: isothermal titration calorimetry (ITC), Fab against conjugate
[2] = biological target: LS-Spy-rTT-FP8v1/PEG2 nanoparticle carrier (HIV-1); experiment: as above

For VRC34.01 Fab, the competent Fab binding sites per entity (ITC stoichiometry) (binding sites per FP-rTT monomer) [1] was 6 and the competent Fab binding sites per entity (ITC stoichiometry) (binding sites per nanoparticle carrier) [2] was 152 and 402.
